Data from the supplement of paper PMC9112550, “Optimization of the antimicrobial peptide Bac7 by deep mutational scanning” (BMC Biology, 2022).

test system: Escherichia coli TOP10; assay: shrunken log2 fold change of peptide-encoding DNA abundance (4.5 h post-induction vs induction); higher = less antimicrobial activity (less host growth inhibition); conditions: time post-induction: 4.5 h; library: site-saturation at positions 5, 18, 19, 20
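Note: peptides expressed intracellularly from a pBAD plasmid library in pooled LB shake-flask culture, induced with 0.3% L-arabinose, DNA abundance read by NGS, three biological replicates, DESeq2 with apeglm shrinkage.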

Row | Sequence | shrunken log2 fold change
1 | RRIRYRPPRLPRPRPRPYENPRP | 0.0075
2 | RRIRDRPPRLPRPRPRPMPDPRP | -0.00281
3 | RRIRGRPPRLPRPRPRPRCFPRP | 0.698
4 | RRIRSRPPRLPRPRPRPPSEPRP | 0.0467
5 | RRIRVRPPRLPRPRPRPREHPRP | 0.322
6 | RRIRLRPPRLPRPRPRPIYLPRP | -0.654
7 | RRIRKRPPRLPRPRPRPSTMPRP | -0.145
8 | RRIRWRPPRLPRPRPRPPPCPRP | 0.638
9 | RRIRMRPPRLPRPRPRPNFFPRP | 0.128
10 | RRIRDRPPRLPRPRPRPQCGPRP | 0.192
11 | RRIRYRPPRLPRPRPRPIAMPRP | -0.322
12 | RRIRYRPPRLPRPRPRPRERPRP | 0.126
13 | RRIRTRPPRLPRPRPRPHQEPRP | -0.163
14 | RRIRDRPPRLPRPRPRPKHEPRP | 0.134
15 | RRIRCRPPRLPRPRPRPVQEPRP | 0.286
16 | RRIRYRPPRLPRPRPRPSISPRP | -0.601
17 | RRIRFRPPRLPRPRPRPHMFPRP | -0.21
18 | RRIRLRPPRLPRPRPRPITVPRP | -0.216
19 | RRIRQRPPRLPRPRPRPHMKPRP | -0.0294
20 | RRIRNRPPRLPRPRPRPSNVPRP | -0.615
21 | RRIRHRPPRLPRPRPRPYWAPRP | -0.186
22 | RRIRERPPRLPRPRPRPTKRPRP | -0.176
23 | RRIRHRPPRLPRPRPRPTMQPRP | -0.0838
24 | RRIRDRPPRLPRPRPRPNSSPRP | -0.675
25 | RRIRTRPPRLPRPRPRPDAAPRP | 0.424

Row | Sequence | shrunken log2 fold change
26 | RRIRVRPPRLPRPRPRPTANPRP | 0.221
27 | RRIRLRPPRLPRPRPRPCGSPRP | -0.105
28 | RRIRYRPPRLPRPRPRPGYSPRP | -0.874
29 | RRIRDRPPRLPRPRPRPAMQPRP | 0.194
30 | RRIRMRPPRLPRPRPRPMNYPRP | -0.082
31 | RRIRCRPPRLPRPRPRPNGAPRP | -0.0129
32 | RRIRRRPPRLPRPRPRPYPYPRP | -0.0951
33 | RRIRERPPRLPRPRPRPNYIPRP | -0.672
34 | RRIRERPPRLPRPRPRPKRHPRP | 0.0422
35 | RRIRYRPPRLPRPRPRPMYYPRP | -0.269
36 | RRIRERPPRLPRPRPRPYFMPRP | -0.784
37 | RRIRARPPRLPRPRPRPVPHPRP | 0.0133
38 | RRIRCRPPRLPRPRPRPAGVPRP | 0.259
39 | RRIRPRPPRLPRPRPRPISDPRP | -0.507
40 | RRIRERPPRLPRPRPRPSGSPRP | 0.0459
41 | RRIRGRPPRLPRPRPRPHFWPRP | 0.428
42 | RRIRPRPPRLPRPRPRPIHLPRP | -0.146
43 | RRIRWRPPRLPRPRPRPMFLPRP | -0.182
44 | RRIRHRPPRLPRPRPRPAENPRP | -0.0113
45 | RRIRTRPPRLPRPRPRPMVAPRP | 0.0166
46 | RRIRTRPPRLPRPRPRPMRAPRP | 1
47 | RRIRYRPPRLPRPRPRPNIDPRP | -1.61
48 | RRIRVRPPRLPRPRPRPPHFPRP | 0.696
49 | RRIRGRPPRLPRPRPRPYYQPRP | -0.537
50 | RRIRARPPRLPRPRPRPDSRPRP | 0.12

Row | Sequence | shrunken log2 fold change
51 | RRIRYRPPRLPRPRPRPYKCPRP | -0.175
52 | RRIRHRPPRLPRPRPRPSAHPRP | -0.139
53 | RRIRCRPPRLPRPRPRPCRKPRP | -0.0115
54 | RRIRNRPPRLPRPRPRPWQIPRP | -0.102
55 | RRIRARPPRLPRPRPRPMYPPRP | -0.79
56 | RRIRCRPPRLPRPRPRPSQWPRP | -0.337
57 | RRIRDRPPRLPRPRPRPDFGPRP | -0.0319
58 | RRIRKRPPRLPRPRPRPDPMPRP | 0.86
59 | RRIRYRPPRLPRPRPRPHMFPRP | 0.0171
60 | RRIRMRPPRLPRPRPRPSIKPRP | -0.0928
61 | RRIRSRPPRLPRPRPRPLMIPRP | -0.764
62 | RRIRRRPPRLPRPRPRPCTKPRP | -0.147
63 | RRIRTRPPRLPRPRPRPDYIPRP | -0.323
64 | RRIRARPPRLPRPRPRPTFQPRP | 0.529
65 | RRIRVRPPRLPRPRPRPFAKPRP | -0.307
66 | RRIRLRPPRLPRPRPRPEGPPRP | 0.539
67 | RRIRNRPPRLPRPRPRPAPCPRP | 0.0656
68 | RRIRFRPPRLPRPRPRPVSPPRP | -0.172
69 | RRIRSRPPRLPRPRPRPYDPPRP | -1
70 | RRIRWRPPRLPRPRPRPWLKPRP | 0.0275
71 | RRIRERPPRLPRPRPRPFDAPRP | -0.0912
72 | RRIRWRPPRLPRPRPRPCPCPRP | -0.273
73 | RRIRPRPPRLPRPRPRPGWFPRP | 0.238
74 | RRIRSRPPRLPRPRPRPAERPRP | 0.0522
75 | RRIRIRPPRLPRPRPRPFNDPRP | -0.0749
